Reference: publication PMC6706415, “Inhibition of amyloid beta toxicity in zebrafish with a chaperone-gold nanoparticle dual strategy” (Nature Communications, 2019)

Target: T1, amyloid beta 42 monomers (UniProt P05067 672-713)
T1 construct: Aβ42, the 42-residue peptide derived from amyloid precursor protein (APP) by proteolysis; HFIP-treated Aβ was considered as Aβm; The peptide fibrillizes during 48 h incubations at 37 °C; also called Aβ42; Aβ; source: bought: Anaspec Inc., purity ≥ 95%; HFIP-treated
Experiment: zeta potential + dynamic light scattering + TEM + CD; Aβ (100 µM; for TEM the ThT ratio, 50 µM Aβ to 6.25 µM βCas) with βCas or βCas AuNPs (12.5 µM βCas equivalent), 48 h at 37 °C in deionized water
Conditions: both partners purified

B1: β casein (natural protein, UniProt P02666 16-224, looked up)
chain: RELEELNVPGEIVESLSSSEESITRINKKIEKFQSEEQQQTEDELQDKIHPFAQTQSLVYPFPGPIPNSLPQNIPPLTQTPVVVPPFLQPEVMGVSKVKEAMAPKHKEMPFPKYPVEPFTESQSLTLTDVENLHLPLPLLQSWMHQPHQPLPPTVMFPPQSVLSLSQSKVLPVPQKAVPYPQRDMPIQAFLLYQEPVLGPVRGPFPIIV
notes: β casein (βCas); Free βCas, which forms micelles in water; Probably the milk protein, which is naturally phosphorylated (surmise); also called βCas micelles
B1: binds.
